Experimental data published in IntAct's records for PubMed 25502805.

B1: Mothers against decapentaplegic homolog 4 (Homo sapiens), Q13485 (parent)
chain: MDNMSITNTPTSNDACLSIVHSLMCHRQGGESETFAKRAIESLVKKLKEKKDELDSLITAITTNGAHPSKCVTIQRTLDGRLQVAGRKGFPHVIYARLWRWPDLHKNELKHVKYCQYAFDLKCDSVCVNPYHYERVVSPGIDLSGLTLQSNAPSSMMVKDEYVHDFEGQPSLSTEGHSIQTIQHPPSNRASTETYSTPALLAPSESNATSTANFPNIPVASTSQPASILGGSHSEGLLQIASGPQPGQQQNGFTGQPATYHHNSTTTWTGSRTAPYTPNLPHHQNGHLQHHPPMPPHPGHYWPVHNELAFQPPISNHPAPEYWCSIAYFEMDVQVGETFKVPSSCPIVTVDGYVDPSGGDRFCLGQLSNVHRTEAIERARLHIGKGVQLECKGEGDVWVRCLSDHAVFVQSYYLDREAGRAPGDAVHKIYPSAYIKVFDLRQCHRQMQQQAATAQAAAAAQAAAVAGNIPGPGSVGGIAPAISLSAAAGIGVDDLRRLCILRMSFVKGWGPDYPRQSIKETPCWIEIHLHRALQLLDEVLHTMPIADPQPLD
partner: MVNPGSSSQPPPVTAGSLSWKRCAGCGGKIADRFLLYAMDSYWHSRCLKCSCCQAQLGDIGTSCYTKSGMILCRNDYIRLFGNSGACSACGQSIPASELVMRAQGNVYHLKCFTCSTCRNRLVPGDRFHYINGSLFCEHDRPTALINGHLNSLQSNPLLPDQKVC
B2: Emerin (Homo sapiens), P50402 (parent)
chain: MDNYADLSDTELTTLLRRYNIPHGPVVGSTRRLYEKKIFEYETQRRRLSPPSSSAASSYSFSDLNSTRGDADMYDLPKKEDALLYQSKGYNDDYYEESYFTTRTYGEPESAGPSRAVRQSVTSFPDADAFHHQVHDDDLLSSSEEECKDRERPMYGRDSAYQSITHYRPVSASRSSLDLSYYPTSSSTSFMSSSSSSSSWLTRRAIRPENRAPGAGLGQDRQVPLWGQLLLFLVFVIVLFFIYHFMQAEEGNPF
partner: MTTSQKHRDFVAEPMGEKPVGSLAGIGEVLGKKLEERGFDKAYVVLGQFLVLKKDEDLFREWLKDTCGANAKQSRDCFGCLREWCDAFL
B3: Barrier-to-autointegration factor (Homo sapiens), O75531 (parent)
chain: B2 partner
partner: B2 chain
B4: Mothers against decapentaplegic homolog 4 (Homo sapiens), Q13485 (parent)
chain: B1 chain
partner: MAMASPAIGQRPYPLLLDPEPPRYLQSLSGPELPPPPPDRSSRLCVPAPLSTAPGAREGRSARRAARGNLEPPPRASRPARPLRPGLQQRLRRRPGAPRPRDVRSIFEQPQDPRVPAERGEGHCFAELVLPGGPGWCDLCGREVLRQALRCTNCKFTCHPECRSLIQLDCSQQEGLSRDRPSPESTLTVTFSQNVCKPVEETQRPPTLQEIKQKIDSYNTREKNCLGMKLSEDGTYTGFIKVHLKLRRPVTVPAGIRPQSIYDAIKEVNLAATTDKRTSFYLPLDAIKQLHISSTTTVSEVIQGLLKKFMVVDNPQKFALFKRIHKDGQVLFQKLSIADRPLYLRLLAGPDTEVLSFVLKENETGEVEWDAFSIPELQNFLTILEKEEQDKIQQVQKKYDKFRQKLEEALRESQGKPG
B5: Mothers against decapentaplegic homolog 4 (Homo sapiens), Q13485 (parent)
chain: B1 chain

Variants of: B1
Settings: with lmo4_human LMO4, P61968

| Variant | effect of a mutation on the interaction |
| --- | --- |
| R361C | with no effect |
| N13S | with no effect |
| Y353S | with no effect |

Variants of: B2
Settings: with baf_human BANF1, O75531

| Variant | effect of a mutation on the interaction |
| --- | --- |
| MDNYADLSDTELTTLLRRYNIPHGPVVGSTRRLYEKKIFEYETQRRRLSPPSSSAASSYSFSDLNSTRGDAVMYDLPKKEDALLYQSKGYNDDYYEESYFTTRTYGEPESAGPSRAVRQSVTSFPDADAFHHQVHDDDLLSSSEEECKDRERPMYGRDSAYQSITHYRPVSASRSSLDLSYYPTSSSTSFMSSSSSSSSWLTRRAIRPENRAPGAGLGQDRQVPLWGQLLLFLVFVIVLFFIYHFMQAEEGNPF [D72V] | with no effect |
| MDNYADLSDTELTTLLRRYNIPHGPVVGSTRRLYEKKIFEYETQRRRLSPPSSFAASSYSFSDLNSTRGDADMYDLPKKEDALLYQSKGYNDDYYEESYFTTRTYGEPESAGPSRAVRQSVTSFPDADAFHHQVHDDDLLSSSEEECKDRERPMYGRDSAYQSITHYRPVSASRSSLDLSYYPTSSSTSFMSSSSSSSSWLTRRAIRPENRAPGAGLGQDRQVPLWGQLLLFLVFVIVLFFIYHFMQAEEGNPF [S54F] | with no effect |
| MDNYADLSDTELTTLLRRYNIPHGPVVGSTRRLYEKKIFEYETQRRRLSPPSSSAASSYSFSDLNSTRGDADMYDLPKKEDALLYQSKGYNDDYYEESYFTTRTYGEPESAGPSRAVRQSVTSFPDADAFHHQVHDDDLLSSSEEECKDRERPMYGRDSAYQSITHYRPVSASRSSLDLSYYTTSSSTSFMSSSSSSSSWLTRRAIRPENRAPGAGLGQDRQVPLWGQLLLFLVFVIVLFFIYHFMQAEEGNPF [P183T] | with no effect |

Variants of: B3
Settings: with emd_human EMD

| Variant | effect of a mutation on the interaction |
| --- | --- |
| MTTSQKHRDFVTEPMGEKPVGSLAGIGEVLGKKLEERGFDKAYVVLGQFLVLKKDEDLFREWLKDTCGANAKQSRDCFGCLREWCDAFL [A12T] | with no effect |

Variants of: B4
Settings: with rasf5_human RASSF5, Q8WWW0

| Variant | effect of a mutation on the interaction |
| --- | --- |
| N13S | with no effect |
| Y353S | with no effect |
| R361C | with no effect |

Variants of: B5
Settings: with smad3_human SMAD3, P84022
Chain of smad3_human SMAD3, P84022 (P84022 whole entry, looked up): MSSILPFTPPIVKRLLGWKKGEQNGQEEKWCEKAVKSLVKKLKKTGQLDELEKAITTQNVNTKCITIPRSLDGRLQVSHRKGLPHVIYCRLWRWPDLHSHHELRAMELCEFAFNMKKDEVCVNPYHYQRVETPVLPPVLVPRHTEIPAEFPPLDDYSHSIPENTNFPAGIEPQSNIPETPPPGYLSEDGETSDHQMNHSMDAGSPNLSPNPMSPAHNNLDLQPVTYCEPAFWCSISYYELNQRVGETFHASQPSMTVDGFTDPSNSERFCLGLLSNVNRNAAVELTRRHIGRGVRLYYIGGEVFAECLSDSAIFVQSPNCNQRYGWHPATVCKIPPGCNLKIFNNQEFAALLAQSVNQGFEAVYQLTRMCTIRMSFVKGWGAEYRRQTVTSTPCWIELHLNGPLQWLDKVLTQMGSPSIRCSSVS

| Variant | effect of a mutation on the interaction |
| --- | --- |
| Y353S | disrupting interaction strength |

Variants of: B5
Settings: with smad9_human SMAD9, O15198
Chain of smad9_human SMAD9, O15198 (O15198 whole entry): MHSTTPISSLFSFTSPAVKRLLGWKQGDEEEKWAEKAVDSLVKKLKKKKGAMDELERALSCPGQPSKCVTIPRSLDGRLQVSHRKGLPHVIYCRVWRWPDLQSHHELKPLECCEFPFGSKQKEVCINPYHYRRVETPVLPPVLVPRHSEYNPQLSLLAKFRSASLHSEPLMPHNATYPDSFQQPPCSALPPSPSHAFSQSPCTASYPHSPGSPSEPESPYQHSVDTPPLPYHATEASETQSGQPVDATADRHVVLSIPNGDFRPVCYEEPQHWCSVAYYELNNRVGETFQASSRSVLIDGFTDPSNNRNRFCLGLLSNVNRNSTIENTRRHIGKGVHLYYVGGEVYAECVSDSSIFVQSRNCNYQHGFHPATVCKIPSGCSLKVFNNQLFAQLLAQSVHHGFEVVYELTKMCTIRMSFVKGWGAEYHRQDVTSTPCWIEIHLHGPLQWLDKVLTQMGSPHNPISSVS

| Variant | effect of a mutation on the interaction |
| --- | --- |
| Y353S | disrupting interaction strength |

Variants of: B5
Settings: with smad3_human SMAD3, P84022
Remark: another data set of the same source

| Variant | effect of a mutation on the interaction |
| --- | --- |
| V350D | disrupting interaction strength |
| E330K | disrupting interaction strength |
| L533R | disrupting interaction strength |
| C324R | disrupting interaction strength |
| G352R | disrupting interaction strength |
